Experiment [1] relates to Ewing sarcoma cell line (SKNMC). Briefly: Synthetic lethality hit validation dose response curves. Format: cell-based. The settings on record: Homo sapiens, SK-N-MC. On the procedure:
For synthetic lethality hit validation, fresh stocks of the […] drugs selected as hits were obtained (pictilisib, SYNkinase and PF-04691502, Cayman Chemical). The interaction of the selected drugs and IGF2-TRAP were evaluated by Q-value calculated by the formula Q=FD+T/FD+(1−FD)FT, where FD+T represents the fraction affected by treatment with the drug plus IGF2-TRAP compared with the untreated control group, FD represents the fraction affected by the drug alone, and FT represents the fraction affected by the IGF2-TRAP alone. A value of Q>1.15 indicates a synergistic effect, Q<0.85 indicates an antagonistic effect, and Q between 0.85 and 1.15 indicates an additive effect.

Experiment [2] has as its target T1, IGF2 (Homo sapiens, UniProt P01344). The settings on record: background, literature references; cited from earlier work.
In experiment [3] the target is T1, IGF2. Briefly: SPR (Biacore T200) of recombinant IGF2R domain 11 mutants on immobilised biotinylated IGF2. Further details: purchased GroPep. The format is binding. In short, it runs like this:
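Biotinylated IGF2 (or IGF1) captured on streptavidin chip; domain 11 mutants (E. coli or P. pastoris, AB5 background) injected at 25 °C, 40 μL/min, in HBS-EP pH 7.4 or MES-EP pH 6.5. kon/koff from 1:1 fit; KD as mean of 2-5 repeats.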
A general note: In SPR one partner is held on a chip, and binding of the other changes the refractive index at the surface.

In experiment [4] the target is IGF1 (Homo sapiens, UniProt P05019). Kind of experiment: SPR of domain 11 mutants on immobilised biotinylated IGF1 (specificity). Format: binding. From the text: Surface plasmon resonance (SPR) binding analysis of recombinant M6P/IGF2R domain 11 mutants interaction with IGF2. Kon indicates association (on) rate; koff, dissociation (off) rate; RU, response units. Binding to IGF2 assessed with BIAcore T200 using purified biotinylated IGF2 and IGF1 on a streptavidin biosensor chip. Recombinant proteins were expressed either in E. coli and/or P. pastoris. All the mutants in the FG and CD loops are on the domain 11^AB5 background for the AB loop unless otherwise stated. All experiments were carried out at 25° C. in HBS-EP buffer (pH 7.4), were repeated 2-5 times on two independent BIAcore chips. nd=not determined. Data for KD expressed as mean of each experiment, and means of kon and koff are shown.
Final kinetic analysis of mutants by SPR was conducted using a Biacore T200 biosensor at 25° C. in either HBS-EP (10 mM HEPES pH 7.4, 150 mM NaCl, 3 mM EDTA, and 0.005% (v/v) surfactant P20) or MES-EP (20 mM MES pH 6.5, 150 mM NaCl, 3 mM EDTA, and 0.005% (v/v) surfactant P20) at a flow-rate of 40 μL min^−1. […] This interaction was also analysed by immobilizing the Fc-domain 11^AB5 and Fc-domain 11^AB5-RHH (or Fc-domain 11^I1572A as control) by Human Antibody Capture (monoclonal mouse anti-human IgG antibody immobilised on a CM5 chip by amine coupling, GE Healthcare) with and without human IgG1 Fc fragment (Bethyl Laboratories, UK) in the control flow cell. […]

The target in experiment [5] is T2, IGF2^1-104 (Homo sapiens, UniProt P01344).
T2 construct: pro-IGF2 (pro-IGF2^1-104 [11 kDa]
Kind of experiment: SPR of IGF forms on Fc-domain 11 proteins immobilised by antibody capture. The format is binding. The conditions noted are these: HBS-EP pH 7.4. The procedure: (§1) SPR analysis of the interaction of recombinant IGF1 and IGF2 forms with Fc-domain 11 proteins immobilised by antibody capture (CM5 chip containing monoclonal mouse anti-human IgG antibody immobilised by amine coupling). Measurements were carried out at 25° C. in HBS-EP buffer (pH 7.4).
(§2) Final kinetic analysis of mutants by SPR was conducted using a Biacore T200 biosensor at 25° C. in either HBS-EP (10 mM HEPES pH 7.4, 150 mM NaCl, 3 mM EDTA, and 0.005% (v/v) surfactant P20) or MES-EP (20 mM MES pH 6.5, 150 mM NaCl, 3 mM EDTA, and 0.005% (v/v) surfactant P20) at a flow-rate of 40 μL min^−1. […] For the analysis of the Fc-domain 11^AB5 interaction, approximately 50 RU of a biotinylated IGF2:biotinylated ubiquitin mixture (1:8 proportion) was immobilized on the CM5-streptavidin chip. This interaction was also analysed by immobilizing the Fc-domain 11^AB5 and Fc-domain 11^AB5-RHH (or Fc-domain 11^I1572A as control) by Human Antibody Capture (monoclonal mouse anti-human IgG antibody immobilised on a CM5 chip by amine coupling, GE Healthcare) with and without human IgG1 Fc fragment (Bethyl Laboratories, UK) in the control flow cell. Increasing concentrations of IGF2^1-67, proIGF2^1-104, proIGF2^1-156 and IGF1 ranging from 0.125 to 32 nM were injected. T200 BiaEvaluation software (GE Healthcare) was used to fit the resulting curves according to a 1:1 binding model. Steady state affinities were determined using the kinetic data, taking the response average at 5 seconds before injection end and for 5 seconds average. Thermodynamic data was performed across the temperature range of 10° C. to 30° C., van't Hoff and Erying plots generated and ΔH, −TΔS and ΔG values determined as previously described.

Experiment [6] concerns the target T3, IGF2^1-156 (Homo sapiens, UniProt P01344).
T3 construct: pro-IGF2^1-156 [17 kDa]
The description is as above. Format: binding. On the procedure:
as §1, §2

For experiment [7], the target named is T4, IGF2^1-67 (Homo sapiens, UniProt P01344).
T4 construct: Recombinant mature (IGF2^1-67 [7.5 kDa]
The description is as above. Format: binding. The conditions noted are these: HBS-EP pH 7.4. The procedure:
as §1, §2

In experiment [8] the test system is Hep3B cells. Briefly: Cell proliferation assay (EdU incorporation). Format: cell-based, human. The conditions noted are these: relative to OSI-06. The procedure:
EdU incorporation was used to measure cell proliferation (Invitrogen, C10338). Briefly, cells were plated at a density of 2×10^5 cells/well in 6-well plates and cultured in serum free media. After 24 hr of serum starvation, PBS (black) and 1.5 μM Fc-domain 11^I1572 (grey) as negative controls, 0.5 and 1.5 μM Fc-domain 11^AB5 (orange), 1 μM OSI-906 (purple) and 0.1 and 0.5 μM doxycycline (green) as positive controls were added to the different wells and cells were further cultured. After 48 hr, 10 μM EdU was added for 3 hr and cells were then washed and trypsinised, followed by fixation in 4% PFA and permeabilisation in TBS/5% Triton. The Alexa 555 dye was then attached to the EdU molecules by click chemistry following the manufacturer's instructions and the % of EdU incorporation under different conditions was then analysed by flow cytometry.

Experiment [9] deals with Huh7 cells. Kind of experiment: Apoptosis in hepatocellular carcinoma cells. The format is cell-based, human.
The subject of experiment [10] is IGF2^1-67-induced hypoglycaemia. Briefly: IGF2-induced hypoglycaemia mouse model. The format is in vivo. From the text:
All animal experiments were approved by the animal use ethical committee of Oxford University and fully complied with UK Home Office guidelines (PPL 30/2695). Wild-type C57BL/6J and 129S2 mice were used throughout. Mice were anaesthetised using a rising concentration of isoflurane in oxygenated air and maintained using 2% isoflurane with 2 L min^−1 oxygen. Blood glucose measurements were taken using an Advantage diabetic glucose meter (Roche Diagnostics, Burgess Hill, UK). In order to test the direct inhibition of IGF2-induced hypoglycaemia by Fc-domain 11^AB5, blood glucose levels were allowed to normalise for 30 min prior to taking a baseline blood glucose reading, then either 1 mg kg^−1 IGF2 only (R&D systems), […], Fc-domain 11^RHH, or Fc-domain 11^I1572A ([…]) was injected. Blood glucose measurements were taken every 10 min for the following hour. For the Fc-domain 11^AB5 mouse preloading experiment, 11.7 mg kg^−1 Fc-domain 11^AB5 or PBS, as negative control, was injected immediately after induction of anaesthesia, 30 mins later a baseline blood glucose reading was taken and 1 mg kg^−1 IGF2 ([…]) was injected, readings were then taken every 10 min for the following hour. For the mouse IGF2 preloading experiment, 1 mg kg^−1 IGF2 was injected immediately after induction of anaesthesia, 30 min later a baseline blood glucose reading was taken and either 11.7 mg kg^−1 Fc-domain 11^AB5 ([…]) or PBS was injected, readings were then taken every 10 min for the following hour.

Setting [11] is: in the presence of Fc-domain 11^AB5-RHH (IGF2-TRAP).

The values below come from patent publication US10494415B2, “Insulin-like growth factor 2 (IGF2) binding agents” (Cancer Research Technology Limited, priority 2015, dated 2019).

“Also recorded” adds a separate entry of the source. Marks after values point to notes of the source that are not given here.

T1 sequence (P01344 25-91): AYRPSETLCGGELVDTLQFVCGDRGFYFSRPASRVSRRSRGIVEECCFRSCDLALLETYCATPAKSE
T2 sequence (P01344 25-128): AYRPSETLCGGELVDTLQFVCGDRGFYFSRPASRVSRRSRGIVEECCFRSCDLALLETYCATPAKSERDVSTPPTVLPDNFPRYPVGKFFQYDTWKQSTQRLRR
T4 sequence (P01344 25-91): as the sequence (P01344 25-91) above
T3 sequence (P01344 25-180): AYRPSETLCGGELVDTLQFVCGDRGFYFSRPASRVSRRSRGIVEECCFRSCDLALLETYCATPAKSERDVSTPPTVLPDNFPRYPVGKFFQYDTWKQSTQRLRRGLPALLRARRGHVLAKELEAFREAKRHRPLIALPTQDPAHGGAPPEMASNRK
Chain of IGF1 (P05019 49-118): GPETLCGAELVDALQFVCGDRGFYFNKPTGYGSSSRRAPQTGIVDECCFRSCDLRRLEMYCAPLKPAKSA

With `COc1ccc(-c2cc3c(C)nc(N)nc3n([C@H]3CC[C@H](OCCO)CC3)c2=O)cn1` [PF-04691502, 2-amino-8-[trans-4-(2-hydroxyethoxy)cyclohexyl]-6-(6-methoxypyridin-3-yl)-4-methylpyrido-[2,3-d]pyrimidin-7(8H)-one], the IC50 (in general, the concentration needed to halve the response being measured) in [1] (drug alone) came out at 420 nM; in [1] (setting [11]), 92 nM.

As to `CS(=O)(=O)N1CCN(Cc2cc3nc(-c4cccc5[nH]ncc45)nc(N4CCOCC4)c3s2)CC1` [Pictilisib, 4-[2-(1H-indazol-4-yl)-6-[(4-methylsulfonylpiperazin-1-yl)methyl]thieno[3,2-d]pyrimidin-4-yl]morpholine], the figures for the IC50 in [1] (drug alone) and in [1] (setting [11]) were 1100 nM and 140 nM, respectively.

B1: AB3: IGF2R domain 11 with AB loop mutations E1544K, K1545S, L1547V (YSKSGV) (protein)
chain: MKSNEHDDCQVTNPSTGHLFDLSSLSGRAGFTAAYSKSGVVYMSICGENENCPPGVGACFGQTRISVGKANKRLRYVDQVLQLVYKDGSPCPSKSGLSYKSVISFVCRPEAGPTNRPMLISLDKQTCTLFFSWHTPLACEQATECSV
On to B1, for which, in [2], the Kd (commonly the equilibrium constant for the complex coming apart) was 15 nM. Moreover, the Kinetics koff in experiment [3] (Table 1, 25° C., HBS-EP pH 7.4) was found to be 0.044 s⁻¹; in [3] (Table 2), 0.044 s⁻¹; in [3] (Table 3, 25° C., HBS-EP pH 7.4), 0.044 s⁻¹; in experiment [3] (Table 4, MES-EP pH 6.5), 0.0381 s⁻¹. Further, the Kinetics kon worked out at 2.76e+06 M⁻¹ s⁻¹ in experiment [3] (Table 1, 25° C., HBS-EP pH 7.4); 2.76e+06 M⁻¹ s⁻¹ in experiment [3] (Table 2); 2.76e+06 M⁻¹ s⁻¹ in [3] (Table 3, 25° C., HBS-EP pH 7.4); 3.43e+06 M⁻¹ s⁻¹ in experiment [3] (Table 4, MES-EP pH 6.5).

B2: WT: wild-type human IGF2R domain 11 (residues 1511-1650), AB loop YSEKGL (protein)
chain: MKSNEHDDCQVTNPSTGHLFDLSSLSGRAGFTAAYSEKGLVYMSICGENENCPPGVGACFGQTRISVGKANKRLRYVDQVLQLVYKDGSPCPSKSGLSYKSVISFVCRPEAGPTNRPMLISLDKQTCTLFFSWHTPLACEQATECSV
On to B2, for which the Kd in [2] is 40 to 60 nM. For the same molecule, in experiment [3] (Table 1, 25° C., HBS-EP pH 7.4), the Kinetics koff was 0.23 s⁻¹ and the Kinetics kon came out at 5e+06 M⁻¹ s⁻¹. Also, in experiment [3] (Table 2), the Kinetics koff is 0.23 s⁻¹ and the Kinetics kon is 5e+06 M⁻¹ s⁻¹. Further, in [3] (Table 4, MES-EP pH 6.5), the Kinetics koff is 0.1441 s⁻¹ and the Kinetics kon was determined as 2.68e+06 M⁻¹ s⁻¹. In addition, in experiment [3] (van't Hoff, 10° C. to 30° C.), the “ΔH of IGF2 interaction” value is under 0 and the “−TΔS of IGF2 interaction” value is over 0.

B3: AB5: IGF2R domain 11 with five AB loop mutations S1543A, E1544K, K1545G, G1546W, L1547G (YAKGWG) (protein)
chain: MKSNEHDDCQVTNPSTGHLFDLSSLSGRAGFTAAYAKGWGVYMSICGENENCPPGVGACFGQTRISVGKANKRLRYVDQVLQLVYKDGSPCPSKSGLSYKSVISFVCRPEAGPTNRPMLISLDKQTCTLFFSWHTPLACEQATECSV
As for B3, the “IGF2 specificity with respect to IGF1” value in experiment [4] is listed as “retained IGF2 specificity”. The Kinetics koff was 0.0208 s⁻¹ in experiment [3] (Table 1, 25° C., HBS-EP pH 7.4); 0.0208 s⁻¹ in experiment [3] (Table 3, 25° C., HBS-EP pH 7.4); 0.0180 s⁻¹ in [3] (Table 4, MES-EP pH 6.5). The Kinetics kon in experiment [3] (Table 1, 25° C., HBS-EP pH 7.4) was 4.21e+06 M⁻¹ s⁻¹; in experiment [3] (Table 3, 25° C., HBS-EP pH 7.4), 4.21e+06 M⁻¹ s⁻¹; in [3] (Table 4, MES-EP pH 6.5), 4.17e+06 M⁻¹ s⁻¹.

B4: Fc-domain 11^AB5: human IgG1 Fc-fusion of domain 11^AB5 (protein)
chain: NEHDDCQVTNPSTGHLFDLSSLSGRAGFTAAYAKGWGVYMSICGENENCPPGVGACFGQTRISVGKANKRLRYVDQVLQLVYKDGSPCPSKSGLSYKSVISFVCRPEAGPTNRPMLISLDKQTCTLFFSWHTPLACEQAT
modifications: left off: a dimerising Fc or GST
notes: human IgG1 Fc-fusion of domain 11^AB5
As to B4, the Kinetics koff in experiment [5] is 0.0069 s⁻¹; in [6] (HBS-EP pH 7.4), 0.0009 s⁻¹; in experiment [7], 0.025 s⁻¹. Besides, the Kinetics kon is 1.287e+07 M⁻¹ s⁻¹ in experiment [5], 4.19* ×10^6 M^−1s^−1 in experiment [6] (may be inaccurate (mixture of three isoforms)) and 6.47e+06 M⁻¹ s⁻¹ in experiment [7]. For the same molecule, the Proliferation entry in experiment [8] is reported as “inhibited”. Moreover, in experiment [9], the Apoptosis entry is recorded as “promoted”. Also, the “IGF2-induced hypoglycaemia (blood glucose)” value in experiment [10] (administered 30 min after 1 mg kg^−1 IGF2^1-67) is on record as “can reverse IGF2-induced hypoglycaemia”; in experiment [10] (pre-loading, co-injection or post-loading), “significant abrogation of the hypoglycaemic effects”; in experiment [10] (preloading 30 min before 1 mg kg^−1 IGF2^1-67), “protects against IGF2-induced hypoglycaemia”; in experiment [10] (premixed / co-injected with 1 mg kg^−1 IGF2^1-67, molar ratio 1:1), “abrogation; also recorded: prevents IGF2-induced hypoglycaemia”.
